Measurements from PMC4488300.

Target: Francisella tularensis ssp. holarctica macrophage locus protein A (MglA) (F. tularensis ssp. holarctica) (UniProt Q5NFG1)
Test: cross-linking + SEC

Francisella tularensis ssp. holarctica macrophage locus protein A (MglA) (from UniProt Q5NFG1 1-205) (natural protein)
stoichiometry N: 2
